The results in this text go back to patent US11673916B2, “Neuroprotective peptides and methods of their use” (University of Pittsburgh—Of the Commonwealth System of …, priority 2020, dated 2023).

For the assay, the target named is T1, Kv2.1 surface clusters (Rattus norvegicus, UniProt P15387).
T1 construct: expressed in transfected cells; host or cells: primary rat cortical neurons (E16-17 Sprague-Dawley), Lipofectamine 2000
T1 sequence (P15387 1-857): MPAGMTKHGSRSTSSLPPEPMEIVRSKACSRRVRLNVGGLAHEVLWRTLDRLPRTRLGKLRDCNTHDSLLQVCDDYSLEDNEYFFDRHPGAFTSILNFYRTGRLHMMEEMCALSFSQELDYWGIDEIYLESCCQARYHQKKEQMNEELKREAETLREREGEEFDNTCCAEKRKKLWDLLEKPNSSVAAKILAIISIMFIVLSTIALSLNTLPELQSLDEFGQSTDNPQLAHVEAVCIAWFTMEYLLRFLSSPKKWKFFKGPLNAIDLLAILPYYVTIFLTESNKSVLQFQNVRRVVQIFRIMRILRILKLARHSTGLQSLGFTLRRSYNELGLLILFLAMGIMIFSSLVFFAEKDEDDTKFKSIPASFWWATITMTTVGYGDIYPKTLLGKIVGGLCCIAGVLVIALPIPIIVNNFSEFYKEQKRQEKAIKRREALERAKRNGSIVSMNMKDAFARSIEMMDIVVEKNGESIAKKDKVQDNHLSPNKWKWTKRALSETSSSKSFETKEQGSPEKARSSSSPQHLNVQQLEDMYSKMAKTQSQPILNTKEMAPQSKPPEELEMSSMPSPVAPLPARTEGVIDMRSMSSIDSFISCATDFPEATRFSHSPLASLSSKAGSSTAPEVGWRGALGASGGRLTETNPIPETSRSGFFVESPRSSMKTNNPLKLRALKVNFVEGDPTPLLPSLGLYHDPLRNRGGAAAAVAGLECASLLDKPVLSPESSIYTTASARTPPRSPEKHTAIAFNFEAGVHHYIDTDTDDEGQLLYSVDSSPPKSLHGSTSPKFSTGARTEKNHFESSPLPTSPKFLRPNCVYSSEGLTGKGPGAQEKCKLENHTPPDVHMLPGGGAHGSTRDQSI
Description: Kv2.1 surface cluster density in live Kv2.1-GFP-transfected cortical neurons treated with TAT-linked peptides. In kind it is cell-based. The conditions noted are these: 10 μM, two-hour treatment, mean±SEM (FIG. 12B). As to the method: In vitro experiments utilized primary cortical neuronal cultures prepared from embryonic day 16-17 Sprague-Dawley rats of either sex in a protocol described previously (McCord et al., J Physiol (Lond). 592: 3511-3521, 2014). Timed-pregnant rats (Charles River Laboratories, Wilmington, Mass.) were sacrificed by CO2 inhalation. Embryonic cortices were dissociated with trypsin (0.6 mg/mL) and cells plated in sterile 6-well plates on poly-L-ornithine-coated glass coverslips at a density of 670,000 cells per well. Cytosine arabinoside (1-2 μM) was utilized to inhibit non-neuronal proliferation on day 14 in vitro (DIV); cultures were utilized at 21-25 DIV.
; Invitrogen, Carlsbad, Calif.). […]
To analyze Kv2.1 distribution in live primary cortical neurons, cells were transfected with both a tdTomato construct and a GFP-tagged Kv2.1 construct (O'Connell, et al., J Neurosci. 26: 9609-9618, 2006) and imaged on a Nikon A1+ confocal microscope (Nikon, Tokyo, Japan). […] For live images of transfected neurons, object count parameters were customized to define a Kv2.1 cluster as an area of high intensity GFP fluorescence (compared to background), measuring 0.05 μm^2 or larger (Schulien et al., J Physiol (Lond). 594: 2647-2659, 2016). Kv2.1 cluster density was calculated by normalizing the number of Kv2.1 clusters counted to the somatic area of each neuron (#Kv2.1 clusters/μm^2). […]

For “YGRKKRRQRRRAIDAFTA [TAT-DP-2A, TAT-linked serine to alanine mutant of DP-2]”, the “mean Kv2.1 surface cluster density” value was 0.14±0.02 #Kv2.1 clusters/μm^2 of neuronal soma.

Regarding “YGRKKRRQRRRDIDDFTD [TAT-DP-2D, TAT-linked peptide containing serine to aspartate mutations]”, the “mean Kv2.1 surface cluster density” value is listed as 0.08±0.02 #Kv2.1 clusters/μm^2 of neuronal soma.
